Holding throughout (experiment): FACS, 293T cells expressing CXCR4 variants
In general terms: In flow cytometry, cells or beads pass a laser one at a time.

For test [1], the target named is CXCR2/CXCR4 chimera 2442 (human) (UniProt P61073).
In the next test the target is ΔN31-CXCR4 (human) (UniProt P61073).
The next test addresses ΔN25-CXCR4 (human) (UniProt P61073).
For test [2], the target named is CXCR2/CXCR4 chimera 2444b (human) (UniProt P61073).

Sequence of ΔN25-CXCR4 (human) (P61073 26-352, stated change not applied): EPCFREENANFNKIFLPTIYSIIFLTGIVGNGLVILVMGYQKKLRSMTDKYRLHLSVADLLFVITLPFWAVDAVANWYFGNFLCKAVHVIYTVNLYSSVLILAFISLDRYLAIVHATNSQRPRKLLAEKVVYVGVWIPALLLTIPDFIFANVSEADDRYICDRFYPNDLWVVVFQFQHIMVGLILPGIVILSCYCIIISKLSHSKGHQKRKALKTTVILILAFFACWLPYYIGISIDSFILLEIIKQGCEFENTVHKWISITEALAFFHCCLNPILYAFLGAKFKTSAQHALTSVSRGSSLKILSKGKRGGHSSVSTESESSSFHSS
Sequence of ΔN31-CXCR4 (human) (P61073 32-352, stated change not applied): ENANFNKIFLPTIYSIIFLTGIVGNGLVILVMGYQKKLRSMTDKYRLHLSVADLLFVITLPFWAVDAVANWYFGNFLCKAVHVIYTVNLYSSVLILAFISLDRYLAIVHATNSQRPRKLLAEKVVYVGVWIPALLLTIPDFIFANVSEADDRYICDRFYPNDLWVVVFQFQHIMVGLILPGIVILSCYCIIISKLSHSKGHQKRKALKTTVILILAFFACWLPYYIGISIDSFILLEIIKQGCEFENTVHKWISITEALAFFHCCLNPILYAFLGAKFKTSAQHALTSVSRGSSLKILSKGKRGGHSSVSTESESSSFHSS

B1: 33-IgG1 (antibody, V domains shown)
VH: QVTLKESGGGVVQPGRSLRLSCAASGFTFTNYGLHWVRQAPGKGLEWVAVISHDGTKKYYADSVKGRFTISRDSSENTLYLQMNSLRPEDSALYYCARDGGYCSGGRCYSYGMDVWGQGTTVTVSS
VL: QSVLTQPPSASGTPGQRVTISCSGSRSNIGSNTVNWYQQLPGTAPKLLIYTNNQRPSGVPDRFSGSKSGTSASLAITGLQAEDEADYYCLSFDSSLTSYVFGTGTKVTVLG
Regarding B1, the binding to cells expressing the variant (+%) in test [1] was determined as 1.5%; with ΔN31-CXCR4 (human), 9%; in the test with ΔN25-CXCR4 (human) it was 13%; in test [2], 1%.
